Test results reported in publication PMC4333382, “RNA helicase A activity is inhibited by oncogenic transcription factor EWS-FLI1” (Nucleic Acids Research, 2015).
One block for each compound: values may come before it.

Columns and labels:
[1] = target: T1, EWS-FLI1 (UniProt F1JVV7); assay: EMSA
T1 sequence: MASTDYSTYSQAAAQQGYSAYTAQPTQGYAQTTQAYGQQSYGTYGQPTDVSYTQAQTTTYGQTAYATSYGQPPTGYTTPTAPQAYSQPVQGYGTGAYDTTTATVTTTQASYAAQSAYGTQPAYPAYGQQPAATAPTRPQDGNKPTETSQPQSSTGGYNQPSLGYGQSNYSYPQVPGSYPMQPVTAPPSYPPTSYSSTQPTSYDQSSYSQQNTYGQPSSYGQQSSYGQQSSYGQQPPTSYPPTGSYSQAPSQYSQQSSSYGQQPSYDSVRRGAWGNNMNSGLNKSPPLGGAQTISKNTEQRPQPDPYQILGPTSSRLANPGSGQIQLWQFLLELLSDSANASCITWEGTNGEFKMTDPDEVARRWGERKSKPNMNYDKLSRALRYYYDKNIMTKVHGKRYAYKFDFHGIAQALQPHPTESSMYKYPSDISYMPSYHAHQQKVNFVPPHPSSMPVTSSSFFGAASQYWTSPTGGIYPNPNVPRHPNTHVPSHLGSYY

[2] = tested on: RHA (RNA helicase A); assay: EMSA
[3] = target: T2, RNA helicase A (RHA, DHX9) (Homo sapiens, UniProt Q08211); assay: dsRNA strand-separation gel assay; format: biochemical; conditions: 2 mM nucleotide, 2 mM MgCl2, pH 7.5, dsRNA
T2 construct: full-length, N-terminal His-tag, baculovirus / Sf9 cells, nickel IMAC and heparin purified

[4] = target: RNA helicase A (human) (UniProt Q08211)
[5] = target: RNA helicase A (human) (UniProt Q08211); assay: SPR; RHA amine-coupled to a CM5 chip (~1800 RU); EWS-FLI1 as analyte at 24 to 0.375 nM; HBS-P with 1-mM TCEP, 2-mM MgCl2, 0.1-M imidazole, pH 7.4; flow 100 ul/min, contact 60 s, dissociation 600 s; sample compartment at 10°C; 1:1 Langmuir model; Biacore T-200
[6] = target: RNA helicase A (human) (UniProt Q08211); remark: listed apart in the source

Sequence of RNA helicase A (human) (Q08211 whole entry): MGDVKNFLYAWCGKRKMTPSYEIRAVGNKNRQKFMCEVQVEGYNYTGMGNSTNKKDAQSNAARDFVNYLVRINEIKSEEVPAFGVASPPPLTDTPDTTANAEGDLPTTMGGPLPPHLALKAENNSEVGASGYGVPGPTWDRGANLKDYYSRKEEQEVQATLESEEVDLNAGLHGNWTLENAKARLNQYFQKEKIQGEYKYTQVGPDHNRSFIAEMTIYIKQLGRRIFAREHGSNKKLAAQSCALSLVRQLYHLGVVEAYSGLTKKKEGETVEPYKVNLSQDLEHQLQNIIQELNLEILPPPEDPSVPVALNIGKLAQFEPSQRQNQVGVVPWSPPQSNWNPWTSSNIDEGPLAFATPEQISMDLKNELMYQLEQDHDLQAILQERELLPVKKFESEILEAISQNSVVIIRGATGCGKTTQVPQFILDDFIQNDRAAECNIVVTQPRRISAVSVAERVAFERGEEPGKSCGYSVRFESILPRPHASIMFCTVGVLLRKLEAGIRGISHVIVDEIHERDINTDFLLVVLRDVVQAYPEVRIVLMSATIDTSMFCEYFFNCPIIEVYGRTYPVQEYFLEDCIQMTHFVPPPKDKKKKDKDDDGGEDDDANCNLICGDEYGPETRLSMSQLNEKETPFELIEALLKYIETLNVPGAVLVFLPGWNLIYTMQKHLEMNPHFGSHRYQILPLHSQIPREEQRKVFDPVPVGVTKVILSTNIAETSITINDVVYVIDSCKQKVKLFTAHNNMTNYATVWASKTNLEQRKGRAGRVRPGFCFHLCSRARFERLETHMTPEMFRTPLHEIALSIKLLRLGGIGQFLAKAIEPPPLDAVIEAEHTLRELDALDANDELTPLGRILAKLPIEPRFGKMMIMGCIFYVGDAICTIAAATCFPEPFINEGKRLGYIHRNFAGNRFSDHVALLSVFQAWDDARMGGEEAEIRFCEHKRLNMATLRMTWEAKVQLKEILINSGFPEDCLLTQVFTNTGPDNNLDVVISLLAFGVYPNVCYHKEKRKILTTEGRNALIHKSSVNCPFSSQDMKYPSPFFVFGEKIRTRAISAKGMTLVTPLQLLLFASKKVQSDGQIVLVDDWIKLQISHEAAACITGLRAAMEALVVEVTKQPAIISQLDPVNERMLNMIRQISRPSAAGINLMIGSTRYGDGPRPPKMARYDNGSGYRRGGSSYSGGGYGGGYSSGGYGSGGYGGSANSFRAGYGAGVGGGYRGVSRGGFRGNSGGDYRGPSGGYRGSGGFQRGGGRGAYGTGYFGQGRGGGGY
T2 sequence (Q08211 whole entry): as above

Compound: 350-nt partially double-stranded HDV RNA
Kd [1]: 30 nM | binding signal (fold decrease in affinity) [1]: 3 | Kd [2]: 4.7 nM

Compound: Nc1ncnc2c1ncn2[C@@H]1O[C@H](COP(=O)(O)OP(=O)(O)OP(=O)(O)O)[C@@H](O)[C@H]1O [ATP]
dsRNA strand-separation gel assay [3]: Our purified RHA utilizes ATP, CTP, Uridine triphosphate (UTP) and Guanosine triphosphate (GTP)

Compound: Nc1ccn([C@@H]2O[C@H](COP(=O)(O)OP(=O)(O)OP(=O)(O)O)[C@@H](O)[C@H]2O)c(=O)n1 [CTP]
dsRNA strand-separation gel assay [3]: Our purified RHA utilizes ATP, CTP, Uridine triphosphate (UTP) and Guanosine triphosphate (GTP)

helicase activity of 1-nM RHA in the presence of 1-nM EWS-FLI1 with racemic YK-4-279 or (S)-YK-4-279 (30 uM) [4]: 80% | Kd [5]: 14 nM | koff [5]: 0.03 s⁻¹ | kon [5]: 3.5e+06 M⁻¹ s⁻¹ | reduction of the initial velocity of RHA helicase activity (dsRNA strand separation), 1-nM RHA with 0.5 to 10 nM EWS-FLI1 (58% reduction at 1 nM) [6]: 78%
Compound: EWS-FLI1
